Results reported in US9284543B2, “Neutral active soluble truncated PH20 polypeptides and uses thereof” (Halozyme, Inc., priority 2008, dated 2016).

Tests used:
[1] = bHA enzymatic assay of PH20 transiently expressed in lectin resistant CHO mutants; format: biochemical; conditions: expressed in Pro-5 cells, pH5.5
Method: In short, a 4×BH 96-well plate was coated with biotinylated-HA (1.1 MDa). The 72 hour post transfection supernatant from cells transfected with human PH20 hyaluronidase carboxy-terminus deletion mutants was diluted in buffer at either pH 7.4 or pH 5.5 and added to individual wells of the plate and allowed to incubate at 37° C. for 90 minutes. The reaction was terminated by addition of 4M guanidine HCl. The wells were washed 4× with Phosphate Buffered Saline with Tween20 (PBST) to remove any digested biotinylated-HA followed by addition of streptavidin-HRP for 1 hour at room temperature. The wells were washed 4× with PBST and the plate was developed with TMB. The plate was read at 450 nm using an ELISA plate reader. Hyaluronidase activity (in Units/mL) was determined by interpolating the measured absorbance at 450 nm with a hyaluronidase reference standard curve. Full length mature human PH20 hyaluronidase and untransfected CHO cells were used as positive and negative controls.
The resulting cell culture media was analyzed by Western blot analysis and hyaluronidase activity was measured using the biotinylated HA enzymatic assay (as described in Examples 3 and 5 above).

[2] = Triton X-114 partition assay; format: physicochemical; conditions: partition into aqueous phase of Triton X-114 at 37° C.
[3] = Microtiter hyaluronidase activity assay with biotinylated-hyaluronic acid; format: biochemical; conditions: 72 hour post transfection supernatant
CHO-S cells [4] = assay: Western blot analysis of PH20 expression in media and cells after transient expression; format: cell-based, Chinese Hamster; conditions: media versus cells
Procedure, shortened: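 CHO-S cells were transiently transfected with mutant PH20-HZ24 plasmids using GeneJuice and expressed for 48-72 h at 37 °C, 5% CO2. Media and cells were harvested separately, with PI-PLC treatment used to release GPI-anchored protein. Non-reduced samples were blotted with rabbit anti-PH20 (0.5 μg/mL), and a band near 66 kDa was scored as PH20.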

CHO-S cells [5] = assay: PI-PLC treatment of expressing cells, Western blot of media and cells; format: cell-based, Chinese Hamster; conditions: cells incubated with PI-PLC for 2 hours
Procedure, shortened: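 CHO-S cells transiently expressing rHuPH20 or C-terminal truncation mutants were treated with PI-PLC (0.5 units/well, or 3.0 units/dish in serum/detergent-free medium) for 2 h at 37 °C after 48–72 h expression. Untreated and treated media and cell extracts were analysed separately by Western blot for PH20.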

Molecule	pH 5.5 Activity ([3]; Table 6) [Units/ml]	pH 7.4 Activity ([3]; Table 6) [Units/ml]	pH 5.5 Activity ([3]; Table 6A) [Units/ml]	pH 7.4 Activity ([3]; Table 6A) [Units/ml]	PH20 Activity (1:27) ([1]; 1:27 dilution) [U/mL]	PH20 Activity (1:81) ([1]; 1:81 dilution) [U/mL]	Soluble [2]	Expressed in Media (CHO-S cells [4])	Expressed in Media Following Addition of PI-PLC (CHO-S cells [5])
HZ24-mut(B/S): plasmid encoding PH20 truncated at amino acid 482, SEQ ID NO:122 (protein, listed as Homo sapiens, soluble rHuPH20 36-482) LNFRAPPVIPNVPFLWAWNAPSEFCLGKFDEPLDMSLFSFIGSPRINATGQGVTIFYVDRLGYYPYIDSITGVTVNGGIPQKISLQDHLDKAKKDITFYMPVDNLGMAVIDWEEWRPTWARNWKPKDVYKNRSIELVQQQNVQLSLTEATEKAKQEFEKAGKDFLVETIKLGKLLRPNHLWGYYLFPDCYNHHYKKPGYNGSCFNVEIKRNDDLSWLWNESTALYPSIYLNTQQSPVAATLYVRNRVREAIRVSKIPDAKSPLPVFAYTRIVFTDQVLKFLSQDELVYTFGETVALGASGIVIWGTLSIMRSMKSCLLLDNYMETILNPYIINVTLAAKMCSQVLCQEQGVCIRKNWNSSDYLHLNPDNFAIQLEKGGKFTVRGKPTLEDLEQFSEKFYCSCYSTLSCKEKADVKDTDAVDVCIADGVCIDAFLKPPMETEEPQIFY	–	–	–	–	0.6615	1.1745	–	–	–
SPAM1-PSTL: C-terminally truncated human PH20, precursor 489 aa (SEQ ID NO:12), mature 454 aa (SEQ ID NO:64) (protein, listed as Homo sapiens, HuPH20 precursor 1-489; mature HuPH20 36-489) chain 1: MGVLKFKHIFFRSFVKSSGVSQIVFTFLLIPCCLTLNFRAPPVIPNVPFLWAWNAPSEFCLGKFDEPLDMSLFSFIGSPRINATGQGVTIFYVDRLGYYPYIDSITGVTVNGGIPQKISLQDHLDKAKKDITFYMPVDNLGMAVIDWEEWRPTWARNWKPKDVYKNRSIELVQQQNVQLSLTEATEKAKQEFEKAGKDFLVETIKLGKLLRPNHLWGYYLFPDCYNHHYKKPGYNGSCFNVEIKRNDDLSWLWNESTALYPSIYLNTQQSPVAATLYVRNRVREAIRVSKIPDAKSPLPVFAYTRIVFTDQVLKFLSQDELVYTFGETVALGASGIVIWGTLSIMRSMKSCLLLDNYMETILNPYIINVTLAAKMCSQVLCQEQGVCIRKNWNSSDYLHLNPDNFAIQLEKGGKFTVRGKPTLEDLEQFSEKFYCSCYSTLSCKEKADVKDTDAVDVCIADGVCIDAFLKPPMETEEPQIFYNASPSTL chain 2: LNFRAPPVIPNVPFLWAWNAPSEFCLGKFDEPLDMSLFSFIGSPRINATGQGVTIFYVDRLGYYPYIDSITGVTVNGGIPQKISLQDHLDKAKKDITFYMPVDNLGMAVIDWEEWRPTWARNWKPKDVYKNRSIELVQQQNVQLSLTEATEKAKQEFEKAGKDFLVETIKLGKLLRPNHLWGYYLFPDCYNHHYKKPGYNGSCFNVEIKRNDDLSWLWNESTALYPSIYLNTQQSPVAATLYVRNRVREAIRVSKIPDAKSPLPVFAYTRIVFTDQVLKFLSQDELVYTFGETVALGASGIVIWGTLSIMRSMKSCLLLDNYMETILNPYIINVTLAAKMCSQVLCQEQGVCIRKNWNSSDYLHLNPDNFAIQLEKGGKFTVRGKPTLEDLEQFSEKFYCSCYSTLSCKEKADVKDTDAVDVCIADGVCIDAFLKPPMETEEPQIFYNASPSTL	1.089	1.557	3.321	1.985	–	–	YES	YES	Initially in media

Further lines, with some results ahead:

pH 5.5 Activity ([3]; Table 6) [Units/ml]	pH 7.4 Activity ([3]; Table 6) [Units/ml]	pH 5.5 Activity ([3]; Table 6A) [Units/ml]	pH 7.4 Activity ([3]; Table 6A) [Units/ml]	Molecule	PH20 Activity (1:27) ([1]; 1:27 dilution) [U/mL]	PH20 Activity (1:81) ([1]; 1:81 dilution) [U/mL]	Soluble [2]	Expressed in Media (CHO-S cells [4])	Expressed in Media Following Addition of PI-PLC (CHO-S cells [5])
0.5625	0.3645	0.729	0.851	SPAM1-TLSA: C-terminally truncated human PH20, precursor 491 aa (SEQ ID NO:11), mature 456 aa (SEQ ID NO:63) (protein, listed as Homo sapiens, HuPH20 precursor 1-491; esHuPH20 36-491) chain 1: MGVLKFKHIFFRSFVKSSGVSQIVFTFLLIPCCLTLNFRAPPVIPNVPFLWAWNAPSEFCLGKFDEPLDMSLFSFIGSPRINATGQGVTIFYVDRLGYYPYIDSITGVTVNGGIPQKISLQDHLDKAKKDITFYMPVDNLGMAVIDWEEWRPTWARNWKPKDVYKNRSIELVQQQNVQLSLTEATEKAKQEFEKAGKDFLVETIKLGKLLRPNHLWGYYLFPDCYNHHYKKPGYNGSCFNVEIKRNDDLSWLWNESTALYPSIYLNTQQSPVAATLYVRNRVREAIRVSKIPDAKSPLPVFAYTRIVFTDQVLKFLSQDELVYTFGETVALGASGIVIWGTLSIMRSMKSCLLLDNYMETILNPYIINVTLAAKMCSQVLCQEQGVCIRKNWNSSDYLHLNPDNFAIQLEKGGKFTVRGKPTLEDLEQFSEKFYCSCYSTLSCKEKADVKDTDAVDVCIADGVCIDAFLKPPMETEEPQIFYNASPSTLSA chain 2: LNFRAPPVIPNVPFLWAWNAPSEFCLGKFDEPLDMSLFSFIGSPRINATGQGVTIFYVDRLGYYPYIDSITGVTVNGGIPQKISLQDHLDKAKKDITFYMPVDNLGMAVIDWEEWRPTWARNWKPKDVYKNRSIELVQQQNVQLSLTEATEKAKQEFEKAGKDFLVETIKLGKLLRPNHLWGYYLFPDCYNHHYKKPGYNGSCFNVEIKRNDDLSWLWNESTALYPSIYLNTQQSPVAATLYVRNRVREAIRVSKIPDAKSPLPVFAYTRIVFTDQVLKFLSQDELVYTFGETVALGASGIVIWGTLSIMRSMKSCLLLDNYMETILNPYIINVTLAAKMCSQVLCQEQGVCIRKNWNSSDYLHLNPDNFAIQLEKGGKFTVRGKPTLEDLEQFSEKFYCSCYSTLSCKEKADVKDTDAVDVCIADGVCIDAFLKPPMETEEPQIFYNASPSTLSA	–	–	YES	YES	Initially in media
1.2375	0.819	–	–	SPAM1-STLS: C-terminally truncated human PH20, precursor 490 aa (SEQ ID NO:13), mature 455 aa (SEQ ID NO:65) (protein, listed as Homo sapiens, HuPH20 precursor 1-490; mature HuPH20 36-490) chain 1: MGVLKFKHIFFRSFVKSSGVSQIVFTFLLIPCCLTLNFRAPPVIPNVPFLWAWNAPSEFCLGKFDEPLDMSLFSFIGSPRINATGQGVTIFYVDRLGYYPYIDSITGVTVNGGIPQKISLQDHLDKAKKDITFYMPVDNLGMAVIDWEEWRPTWARNWKPKDVYKNRSIELVQQQNVQLSLTEATEKAKQEFEKAGKDFLVETIKLGKLLRPNHLWGYYLFPDCYNHHYKKPGYNGSCFNVEIKRNDDLSWLWNESTALYPSIYLNTQQSPVAATLYVRNRVREAIRVSKIPDAKSPLPVFAYTRIVFTDQVLKFLSQDELVYTFGETVALGASGIVIWGTLSIMRSMKSCLLLDNYMETILNPYIINVTLAAKMCSQVLCQEQGVCIRKNWNSSDYLHLNPDNFAIQLEKGGKFTVRGKPTLEDLEQFSEKFYCSCYSTLSCKEKADVKDTDAVDVCIADGVCIDAFLKPPMETEEPQIFYNASPSTLS chain 2: LNFRAPPVIPNVPFLWAWNAPSEFCLGKFDEPLDMSLFSFIGSPRINATGQGVTIFYVDRLGYYPYIDSITGVTVNGGIPQKISLQDHLDKAKKDITFYMPVDNLGMAVIDWEEWRPTWARNWKPKDVYKNRSIELVQQQNVQLSLTEATEKAKQEFEKAGKDFLVETIKLGKLLRPNHLWGYYLFPDCYNHHYKKPGYNGSCFNVEIKRNDDLSWLWNESTALYPSIYLNTQQSPVAATLYVRNRVREAIRVSKIPDAKSPLPVFAYTRIVFTDQVLKFLSQDELVYTFGETVALGASGIVIWGTLSIMRSMKSCLLLDNYMETILNPYIINVTLAAKMCSQVLCQEQGVCIRKNWNSSDYLHLNPDNFAIQLEKGGKFTVRGKPTLEDLEQFSEKFYCSCYSTLSCKEKADVKDTDAVDVCIADGVCIDAFLKPPMETEEPQIFYNASPSTLS	–	–	YES	YES	Initially in media
